According to patent US20260092121A1 (TALEM THERAPEUTICS, published 2026):

What was measured:
[1] = target: human TrkA-His (human, UniProt P04629 33-417, limits assumed); assay: ELISA
[2] = target: human TrkC-His (human, UniProt Q16288 32-429); assay: ELISA
[3] = target: T1, mouse TrkB-ECD-GST (mouse, UniProt P15209 32-429); assay: ELISA
T1 construct: extracellular domain; in-house fusion, HEK293; also called mTrkB-ECD-GST; mTrkB (ELISA); not shown: glutathione S-transferase (GST) fusion part

[4] = target: TrkB in PathHunter eXpress TrkB Functional Assay cells (modified U2OS); assay: cell-based or functional assay
[5] = target: T2, human TrkB-His (human, UniProt Q16620 32-430); assay: BLI off-rate, mAb captured
T2 construct: in-house fusion of the TrkB ECD with poly-His, HEK293; also called huTrkB-His; hTrkB-His; not shown: poly-His tag

Sequence of human TrkA-His (P04629 33-417 limits assumed): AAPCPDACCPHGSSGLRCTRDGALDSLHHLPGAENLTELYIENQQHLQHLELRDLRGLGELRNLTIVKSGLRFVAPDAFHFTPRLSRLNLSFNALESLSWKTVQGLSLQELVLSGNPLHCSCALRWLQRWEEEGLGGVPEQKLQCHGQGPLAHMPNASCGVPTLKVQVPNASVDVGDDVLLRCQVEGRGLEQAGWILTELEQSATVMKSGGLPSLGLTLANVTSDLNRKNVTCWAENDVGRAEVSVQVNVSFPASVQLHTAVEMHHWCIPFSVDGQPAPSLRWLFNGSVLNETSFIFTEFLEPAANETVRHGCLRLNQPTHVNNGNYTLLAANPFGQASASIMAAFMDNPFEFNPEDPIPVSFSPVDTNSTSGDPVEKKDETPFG

Binder | binding result [1] | binding result [2] | binding result [3] | TrkB activation (EC50) [4] [µg/mL] | koff [5] [s⁻¹]
anti-TrkB clone 3A06 (antibody, V domains shown, full-length IgG) VH: not shown VL: QSVLTQPPSVSVSPGQTASITCSGDKLGNKYASWYRQKPGQSPVLVIYQDTKRPSGIPERFSGSNSGNTATLTISGTQAMDEGDYYCQAWDSSTAVVFGGGTKLTVL | no binding (tested: up to 10 µg/mL) | no binding (tested: up to 10 µg/mL) | binds | 0.15 | 0.00453
anti-TrkB clone 3C02 (antibody, V domains shown, full-length IgG) VH: QVQLVQSGAEVKKPGESLKISCKGSGYSFTSYWIGWVRQMPGKGLEWMGIIYPGDSDTRYSPSFQGQVTISADKSISTAYLQWSSLKASDTAMYYCARGGPPDYWGQGTLVTVSS VL: not shown | no binding (tested: up to 10 µg/mL) | no binding (tested: up to 10 µg/mL) | binds | 0.15 | 0.00494
anti-TrkB clone 3B09 (antibody, V domains shown, full-length IgG) VH: EVQLVQSGAEVKKPGESLKISCKGSGYSFTSYWIGWVRQMPGKGLEWMGIIYPGDSDTRYSPSFQGQVTISADKSISTAYLQWSSLKASDTAMYYCATPMEDGMDVWGQGTTVTVSS VL: QAGLTQPPSVSVSPGQTVTITCSADNLGDKYTSWYQQRPGQSPVLVIYQDTKRPSGIPARFSGSNSGNTATLTISGTQAMDEADYYCQAWDSSTGVFGTGTKVTVL | no binding (tested: up to 10 µg/mL) | no binding (tested: up to 10 µg/mL) | binds | 0.094 | 0.00472
anti-TrkB clone 4F03 (antibody, V domains shown, full-length IgG) VH: EVQLVQSGAEVKKPGESLKISCKGSGYSFTSYWIGWVRQMPGKGLEWMGIIYPGDSDTRYSPSFQGQVTISADKSISTAYLQWSSLKASDTAMYYCASWGMDVWGQGTLVTVSS VL: QPVLTQPPSASGTPGQRVTISCSGSSSNIGTHTVNWYQQFPGTAPKLLMYSTFQRPSGVPDRFSGSKSGTSASLAISGLQSEDEADYYCAAWDDSLNGPVFGGGTQLTVL | no binding (tested: up to 10 µg/mL) | no binding (tested: up to 10 µg/mL) | – | 0.041 | 0.00639
anti-TrkB clone 1E07 (antibody, V domains shown, full-length IgG) VH: QVQLVQSGAEVKKPGESLRISCKGSGYSFTNNWINWVRQMPGKGLEWMGRIDPDDSYTNYSPSFQGHVIFSADKSSNTVYLQWSSLEASDTAMYYCARRAQGGGGYDYWGQGTLVTVSS VL: QSVLTQPPSVSGAPGQRVTISCTGSSSNIGAGFNVHWYQQVAGLAPKLLIHDNINRPSGVPDRFSGSKSGASASLTITGLQAEDEADYYCQSYDSSLSGWFAFGTGTKVTVL | no binding (tested: up to 10 µg/mL) | no binding (tested: up to 10 µg/mL) | binds | 0.13 | 0.00613
anti-TrkB clone 5C07 (antibody, V domains shown, full-length IgG) VH: QVQLVQSGAEVKKPGESLKISCKGFGYSFTNYWIGWVRQMPGKGLEWMGIIYPGDSDTRYSPSFQGQVTISADKSITTAYLQWSSLKASDTAMYYCASHTKDGTWDIWGQGTMVTVSS VL: QAGLTQPPSVSVSPGQTASITCSGERLGDKYVSWYQQKPGQSPVLVIYQDDKRPSGVPERFSGSNSGNTATLNISGTQPMDEADYYCQAWDSSTSLYVFGTGTKLTVL | no binding (tested: up to 10 µg/mL) | no binding (tested: up to 10 µg/mL) | binds | 0.47 | 0.00457
anti-TrkB clone 3E04 (antibody, V domains shown, full-length IgG) VH: EVQLVQSGAEVKKPGESLKISCKGSGYSFTSYWIGWVRQMPGKGLEWMGIIYPGDSDTRYSPSFQGQVTISADKSISTAYLQWSSLKASDTAMYYCASRLLFGDDAFDIWGQGTMVTVSS VL: SYVLTQPPSVSVSPGQTATITCSGDKLGDEYVSWYQQKPGQSPVLVIYQDSKRPSGIPERFSGSNSGNTATLTISGAQAVDEADYYCQAWDSNAGAFGTGTKLTVL | no binding (tested: up to 10 µg/mL) | no binding (tested: up to 10 µg/mL) | binds | 0.11 | 0.00534
anti-TrkB clone 3F06 (antibody, V domains shown, full-length IgG) VH: QMQLVQSGAEVKKPGESLKISCKGSGYSFSTNWIGWVRQMPGKGLEWMGIIYPGDSDTRYSPSFQGQVTISADKSISTAYLQWSSLKASDTAMYYCARFYDSSGNDYWGQGTLVTVSS VL: QSVLTQPPSVSVSPGQTASITCSGDKLGDKYASWYQQKPGQSPVLVIFQDNKRPSGIPERFSGSNSGNTATLTISGTQAMDEADYYCQTWDSSTAIFGGGTKLTVL | no binding (tested: up to 10 µg/mL) | no binding (tested: up to 10 µg/mL) | binds | 0.14 | 0.00479
anti-TrkB clone 3F09 (antibody, V domains shown, full-length IgG) VH: EVQLVQSGAEVKKPGESLKISCKGSGYSFTSYWIGWVRQMPGKGLEWMGIIYPGDSDTRYSPSFQGQVTISADKSISTAYLQWSSLKASDTAMYYCVVRPAAAGTRIDYWGQGTLVTVSS VL: QSVLTQPPSVSVSPGQTASITCSGDKLGDKYASWYQQKPGQSPVLIIYQDNKRPSGIPERFSGSNSGNTATLTISGTQAMDEADYYCQAWDSSTYVFGTGTKLTVL | no binding (tested: up to 10 µg/mL) | no binding (tested: up to 10 µg/mL) | – | 0.053 | 0.00631
anti-TrkB clone 6E08 (antibody, V domains shown, full-length IgG) VH: QVQLVQSGGGVVQPGRSLRLSCAASGFTFSSYAMHWVRQAPGKGLEWVAVISYDGSNKYYADSVKGRFTISRDNSKNTLYLQMNSLRAEDTAVYYCARAFRRYDAFDIWGQGTLVTVSS VL: DIQMTQTPLSLSVTLGQPASISCRSSQGLVYSDGNTYLNWFQQRPGQSPRRLIYKVSNRDSGVPDRFSGSGSGTDFTLKISRVEAEDVGVYYCMQGTHWPPAFGQGTKVEIK | no binding (tested: up to 10 µg/mL) | no binding (tested: up to 10 µg/mL) | binds | 4.2 | 0.0064
anti-TrkB clone 3A05 (antibody, V domains shown, full-length IgG) VH: QVQLVESGAEVKKPGESLKISCKGSGYSFTTYWIAWVRQMPGKGLEWMGIIYPGDSDTRYSPSFQGQVTISADKSISTAYLQWSSLKASDTAMYYCARLGGGMDVWGQGTMVTVSS VL: QAGLTQPPSASGTPGQRVTISCSGSSSNIGSNTVSWYRQIPGTAPKFLLYGNNQRPSGVPARFSGSKSGTSASLAVDGLQSDDEADYYCAAWDDSLSGYVFGTGTKLTVL | no binding (tested: up to 10 µg/mL) | no binding (tested: up to 10 µg/mL) | binds | 0.006 | 0.00435
anti-TrkB clone 3B04 (antibody, V domains shown, full-length IgG) VH: QVQLVQSGAEVKKPGEPLKISCKGSGYSFPTYWIAWVRQMPGKGLEWMGIIYPGDSDTRYSPSFQGQVTISADKSISTAYLQWGSLRASDTAMYYCARGGSGLDYWGQGTLVTVSS VL: SYELMQPPSVSVSPGQTASITCSGDKLGTKYVSWYQQKPGQSPVLVIYQDSKRPSGIPERFSGSNSGNTATLTISGTQAMDEADYYCQAWDSSTVVFGGGTKLTVL | no binding (tested: up to 10 µg/mL) | no binding (tested: up to 10 µg/mL) | binds | 0.1 | 0.00802
anti-TrkB clone 6B04 (antibody, V domains shown, full-length IgG) VH: QVQLVQSGAEVKKPGESLKISCKGSGYSFTSYWIGWVRQMPGKGLEWMGIIYPGDSDTRYSPSFQGQVTISADKSISTAYLQWSSLKASDTAIYYCARLGGAMDVWGQGTLVTVSS VL: SYELMQPPSLSVSPGQTASITCSGDKLGDKYVSWYQQRPGQSPVLVMYQDKKRPSGIPKRFSGSNSGNTATLTISGTQAMDEADYYCAAWDDSLNGYYVFGTGTQLTVL | no binding (tested: up to 10 µg/mL) | no binding (tested: up to 10 µg/mL) | binds | 0.039 | 0.00678
anti-TrkB clone 6F04 (antibody, V domains shown, full-length IgG) VH: EVQLVQSGAEVKKPGESLKISCKGSGYSFTSYWIGWVRQMPGKGLEWMGIIYPGDSDTRYSPSFQGQVTISADKSISTAYLQWSSLKASDTAMYYCARGSGGYDYWGQGTLVTVSS VL: QSVLTQPPSVSVSPGQTASITCSGNKLGDKFVSWYHQRPGQSPVLVIYEDNKRPSGIPERFSGSNSGNTATLTISGTQAMDEGDYYCQTWDVSSYVFGTGTKVTVL | no binding (tested: up to 10 µg/mL) | no binding (tested: up to 10 µg/mL) | binds | 0.035 | 0.00473
anti-TrkB clone 3H11 (antibody, V domains shown, full-length IgG) VH: QVQLQQSGPGLVKPSQTLSLTCAISGDSVSSNSAVWNWIRQSPSRGLEWLGRTYYRSKWYTDFAVSVKSRITINPDTSKNQFSLQLNSVTPEDTAVYYCARGRNGMDVWGQGTMVTVST VL: LPVLTQPPSASGTPGQRVTISCSGSSSNIGHKYVYWYQQLPGAAPKLLIYRNNQRPSGVPDRFSASKSGTSASLAISGLRSEDEADYYCATWDDSLNGVVFGGGTKVTVL | no binding (tested: up to 10 µg/mL) | no binding (tested: up to 10 µg/mL) | binds | 0.02 | 0.0057
